Data published in patent US20250009780A1, “AGENTS ENCODING CLDN6 AND CD3 BINDING ELEMENTS FOR TREATING CLDN6-POSITIVE CANCERS” (BIONTECH SE, priority 2021, published 2025).

Columns and labels:
CLDN3 = target: T1, CLDN3 (Homo sapiens, UniProt O15551); experiment: Flow cytometric binding assay, HEK-293T-17 CLDN3 transductants; details: 10 μg/mL RiboMab02.1 in HEK-293T-17 supernatant
T1 construct: expressed in transfected cells
T1 sequence (O15551 1-220): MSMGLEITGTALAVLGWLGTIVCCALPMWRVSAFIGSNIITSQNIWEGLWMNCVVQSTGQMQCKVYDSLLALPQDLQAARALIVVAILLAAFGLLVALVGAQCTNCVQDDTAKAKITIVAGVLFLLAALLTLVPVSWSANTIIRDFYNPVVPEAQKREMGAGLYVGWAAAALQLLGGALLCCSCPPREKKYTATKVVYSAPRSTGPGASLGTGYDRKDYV
Excerpt: Cells were first gated for singlets followed by gating for viable lymphocytes (PBMCs) or viable HEK-293T-17 cells. […] Cynomolgus monkey or human PBMCs and HEK-293T-17 transductants stably expressing luciferase (HEK-293T-17_mock), CLDN3, 4, 6 or 9 served as target cells as indicated. The dotted vertical line marks the peak position of unstained populations.

human PBMCs = experiment: In vitro human cytokine release (multiplex ELISA on T-cell activation assay supernatants); format: cell-based
Description: Cytokine concentration values for each donor (means of technical triplicates) are shown. Filled symbols represent values with target cells while open symbols represent values without target cells.
Cell culture supernatants obtained from the T-cell activation assay were analyzed to investigate the RiboMab02.1-dependent induction of on- and off-target cytokine release. The levels of human pro-inflammatory cytokines IFN-γ, IL-1β, IL-2, IL-6, IL-10 and TNF-α were measured using a customized multiplex ELISA kit.

[1] = Anti-drug antibody (ADA) sandwich immunoassay in mouse serum; format: in vivo, Balb/cJRj mice; details: 30 μg RNA-LNP IV single dose; compared to RiboMab_712/711
Description: Four female Balb/cJRj mice received an IV single dose of 30 μg RNA-LNP per mouse (˜1.4 mg/kg). Serum was sampled pre- and 6, 24, 48, 96, 168, 216, 265 and 528 hours (0.25 to 22 days) post-administration.
Anti-RiboMab02.1 and anti-RiboMab_712/711 drug antibodies (ADAs) in mouse sera were determined using a Gyros xPand™ XPA1025 ELISA device from Gyros Protein Technologies AB. Sandwich immunoassay was processed on a Gyrolab Bioaffy 200 CD.
Anti-RiboMab ADAs were captured using 100 μg/mL biotinylated drug antibody. Serum ADA levels were detected with 25 nM Alexa Fluor 647-conjugated AffiniPure goat anti-mouse IgG, Fc fragment specific antibody. Data were generated using the 200-3W-002-A method and the results were analyzed using Gyrolab Evaluator software.
The positive ADA response was determined according to the floating cut-point. Therefore, the cut-point was calculated using the response of the negative sera (pre-bleeds) and the formula, normalization factor (NF)+mean negative controls (NC).
NF=X*SD of the negative samples; X=1.645; SD=standard deviation of the negative sera (pre-bleeds); NC=3 negative controls (pooled negative sera).

[2] = Repeated-dose PK study of BNT142 in mice; format: in vivo, Balb/cJRj mice
Description: Female Balb/cJRj mice (n=4) were injected IV with 10 or 30 μg BNT142 or 30 μg Luc_RNA-LNP as control once weekly for a total of five administrations at the time points indicated by the horizontal dotted lines. Blood was drawn from mice at baseline (0 h), 6 h after (6, 174, 342, 510, and 678 h) and 24 h before (144, 312, 480, and 648 h) each BNT142 or saline administration, respectively. A final blood draw was done 816 h after the first BNT142/saline administration.
Treatment groups received five IV bolus injections of 10 or 30 μg BNT142 (approximately 0.4 and 1.2 mg/kg, respectively) or 30 μg Luc_RNA-LNP at a weekly interval. Serum samples were prepared from blood drawn from the animals at 6 h after (tmax) and 24 h prior to (last detectable concentration [Ctrough]) each BNT142 administration. […] The last blood samples were drawn 816 h (34 days) after the first injection.

human PBMCs (T cells) = experiment: T-cell activation assay (CD69/CD25, flow cytometry); format: cell-based
Description: Human PBMCs from three healthy donors (effector cells) were cultured in the presence and absence of CLDN6-positive PA-1 cells (target cells) at a 10:1 effector-to-target-cell ratio. RiboMab02.1-containing mouse serum was serially-diluted (10-fold, 10-point; range: 4.0×10^−6 to 4,000 ng/mL) prior to use in the assay. After 48 h of co-incubation, cells were stained with anti-CD5, anti-CD69 and anti-CD25 antibodies for flow cytometric analysis of T cells. Shown here is the total T-cell activation normalized to samples incubated with mock serum from Luc_RNA-LNP-treated mice. Percentages of activated T cells are shown for each individual donor (left) and for all three donors as mean (right). Filled symbols represent values with and black, open symbols without target cells.
RiboMab02.1-containing as well as mock serum samples were obtained from mice administered either with BNT142 or luciferase encoding RNA-LNP (Luc_RNA-LNP; mock). Human PBMCs from three healthy donors were used as effector cells. Serum samples were serially-diluted (10-fold, 10-point), starting at 4,000 ng/mL, and added to PBMCs cultured alone or together with CLDN6-positive PA-1 target cells at an effector-to-target-cell ratio of 10:1. After 48 h of incubation, T cells were analyzed by flow cytometry for surface expression of the early and late activation markers CD69 and CD25, respectively. […] OKT3 positive control led to >50% T-cell activation with and without target cells (data not shown). Upregulation of CD69 on T cells was higher than that of CD25; CD25-positive cells were almost exclusively CD69 double-positive, pointing to an early activation state (data not shown).

RiboMab02.1: Fab-(scFv)2-based bispecific antibody (tribody) against CLDN6 and CD3 encoded by BNT142; SEQ ID NOs: 4 and 6; C53S
binding to CLDN3 (CLDN3): not to CLDN3, CLDN4 or CLDN9
cytokine induction (human PBMCs; absence of CLDN6-positive PA-1 target cells): no cytokine induction was observed
IL-6 induction (human PBMCs; absence of target cells, highest concentration of RiboMab02.1): low induction of IL-6 seen with one donor
release of IFN-γ, IL-1β, IL-2, IL-6, IL-10 and TNF-α (human PBMCs; presence of PA-1 target cells, dose- and donor-dependent): induced the release of all cytokines
immunogenic potential (ADA response) [1]: lower immunogenic potential
RiboMab02.1 peak level (Cmax) in serum ([2]; 10 μg BNT142 weekly x5, 6 h after last injection): up to 7.4 μg/mL
RiboMab02.1 translation between subsequent injections ([2]; either BNT142 dose): no loss in RiboMab02.1 translation
Ctrough lower than Cmax ([2]; within 7 days of each injection): approximately 130 fold
off-target T-cell activation (human PBMCs (T cells); PBMCs without target cells, up to 40 ng/mL RiboMab02.1, 48 h): No off-target T-cell activation
concentration above EC50 up to which T-cell activation is target-dependent (human PBMCs (T cells); onset of unspecific T-cell activation relative to EC50): > 1,500 fold
